Laboratory results from patent US20260209386A1 (MYTHIC THERAPEUTICS, published 2026).
Changes are numbered by the printed parent chain.

T1: Human PTK7 Protein, His Tag (Acro Biosystems) (human, UniProt Q13308 31-704)
T1 construct: Bought His-tagged recombinant human PTK7; also called CCK4; Tyrosine-protein kinase-like 7
T1 sequence: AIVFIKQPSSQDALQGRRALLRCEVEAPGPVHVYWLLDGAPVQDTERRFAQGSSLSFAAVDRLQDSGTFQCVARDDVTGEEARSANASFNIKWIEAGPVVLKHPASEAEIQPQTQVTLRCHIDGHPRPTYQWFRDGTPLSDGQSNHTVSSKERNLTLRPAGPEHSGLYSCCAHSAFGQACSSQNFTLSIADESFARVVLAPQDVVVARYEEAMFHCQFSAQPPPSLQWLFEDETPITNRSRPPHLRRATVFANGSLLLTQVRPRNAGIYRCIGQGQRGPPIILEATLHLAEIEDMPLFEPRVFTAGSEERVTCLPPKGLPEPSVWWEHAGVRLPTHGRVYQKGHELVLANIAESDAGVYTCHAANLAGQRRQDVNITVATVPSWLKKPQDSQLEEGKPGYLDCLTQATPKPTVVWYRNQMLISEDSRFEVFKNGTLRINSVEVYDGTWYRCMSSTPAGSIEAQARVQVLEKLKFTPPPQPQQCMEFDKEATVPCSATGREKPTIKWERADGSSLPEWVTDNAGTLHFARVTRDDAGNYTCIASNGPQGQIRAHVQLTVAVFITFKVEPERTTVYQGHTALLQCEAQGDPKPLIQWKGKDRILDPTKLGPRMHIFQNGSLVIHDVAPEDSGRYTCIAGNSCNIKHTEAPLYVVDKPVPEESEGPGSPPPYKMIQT

T2: Human PTK7 Protein, His Tag, Acro Biosystems (human, UniProt Q13308 31-704)
T2 construct: Bought protein; also called CCK4; not shown: His tag
T2 sequence: T1 sequence

B1: MYT10988 (antibody, V domains shown)
VH: EVQLVESGGGLVQPGGSLRLSCTASGFSLSSYAMGWVRQAPGKGLEWVGFINAGGNTYYANWAKGRFTISRDTSKNTVYLQMNSLRAEDTAVYFCARRYSRASGWYHLWGQGTLVTVSS
VL: EIVMTQSPSTLSASVGDRVIITCQASQSISSYLAWYQQKPGKAPKLLIYAASTLASGVPSRFSGSGSGAEFTLTISSLQPDDFATYYCQSYSYSSGIDYGDVFGQGTKLTVL
notes: MYT9359 HC variant; captured on anti-human Fc sensor
B2: MYT10977 (antibody, V domains shown)
VH: B1 VH with A96H, H107D
VL: B1 VL
notes: as for B1
B3: MYT10973 (antibody, V domains shown)
VH: B1 VH with W62H, H107D
VL: B1 VL
notes: as for B1
B4: MYT10968 (antibody, V domains shown)
VH: B1 VH with T57H, H107D
VL: B1 VL
notes: as for B1
B5: MYT10953 (antibody, V domains shown)
VH: B1 VH with S28H, H107D
VL: B1 VL
notes: as for B1
B6: MYT10965 (antibody, V domains shown)
VH: B1 VH with G54H, H107D
VL: B1 VL
notes: as for B1
B7: MYT10992 (antibody, V domains shown)
VH: B1 VH with H107D
VL: B1 VL with Q24H
notes: MYT9359 LC variant; captured on anti-human Fc sensor
B8: MYT10994 (antibody, V domains shown)
VH: B1 VH with H107D
VL: B1 VL with S26H
notes: as for B7
B9: MYT10971 (antibody, V domains shown)
VH: B1 VH with A60H, H107D
VL: B1 VL
notes: as for B1
B10: MYT10956 (antibody, V domains shown)
VH: B1 VH with S31H, H107D
VL: B1 VL
notes: as for B1
B11: MYT10976 (antibody, V domains shown)
VH: B1 VH with G65H, H107D
VL: B1 VL
notes: as for B1
B12: MYT10954 (antibody, V domains shown)
VH: B1 VH with L29H, H107D
VL: B1 VL
notes: as for B1
B13: MYT10975 (antibody, V domains shown)
VH: B1 VH with K64H, H107D
VL: B1 VL
notes: as for B1
B14: MYT10972 (antibody, V domains shown)
VH: B1 VH with N61H, H107D
VL: B1 VL
notes: as for B1
B15: MYT10987 (antibody, V domains shown)
VH: B1 VH with Y106H, H107D
VL: B1 VL
notes: as for B1
B16: MYT10967 (antibody, V domains shown)
VH: B1 VH with N56H, H107D
VL: B1 VL
notes: as for B1
B17: MYT10995 (antibody, V domains shown)
VH: B1 VH with H107D
VL: B1 VL with Q27H
notes: as for B7
B18: MYT11193 (antibody, V domains shown)
VH: EVQLVESGGGLVQPGGSLRLSCTASGIDLSSYVMGWVRQAPGKGLEWVGYIYHGGGTYYATWARGRFTISRDTSKNTVYLQMNSLRAEDTAVYFCARAAADFYFNLWGQGTLVTVSS
VL: EIVMTQSPSTLSASVGDRVIITCQASQSISSYLAWYQQKPGKAPKLLIYDISDLASGVPSRFSGSGSGAEFTLTISSLQPDDFATYYCQSYYWISNSGAAFGQGTKLTVL
notes: HC variant of MYT9460, sub at HCV pos 53 (H2 04)
B19: MYT11210 (antibody, V domains shown)
VH: B18 VH with H53G, A100H
VL: B18 VL
notes: HC variant of MYT9460, sub at HCV pos 100 (H3 05)
B20: MYT11229 (antibody, V domains shown)
VH: B18 VH with H53G
VL: B18 VL with L33H
notes: LC variant of MYT9460, sub at LCV pos 33 (L1 10)
B21: MYT11213 (antibody, V domains shown)
VH: B18 VH with H53G, Y103H
VL: B18 VL
notes: HC variant of MYT9460, sub at HCV pos 103 (H3 08)
B22: MYT11225 (antibody, V domains shown)
VH: B18 VH with H53G
VL: B18 VL with I29H
notes: LC variant of MYT9460, sub at LCV pos 29 (L1 06)
B23: MYT11194 (antibody, V domains shown)
VH: B18 VH with H53G, G54H
VL: B18 VL
notes: HC variant of MYT9460, sub at HCV pos 54 (H2 05)
B24: MYT11238 (antibody, V domains shown)
VH: B18 VH with H53G
VL: B18 VL with Q89H
notes: LC variant of MYT9460, sub at LCV pos 89 (L3 01)
B25: MYT11195 (antibody, V domains shown)
VH: B18 VH with H53G, G55H
VL: B18 VL
notes: HC variant of MYT9460, sub at HCV pos 55 (H2 06)
B26: MYT11249 (antibody, V domains shown)
VH: B18 VH with H53G
VL: B18 VL with A100H
notes: LC variant of MYT9460, sub at LCV pos 100 (L3 12)
B27: MYT11248 (antibody, V domains shown)
VH: B18 VH with H53G
VL: B18 VL with A99H
notes: LC variant of MYT9460, sub at LCV pos 99 (L3 11)
B28: MYT11244 (antibody, V domains shown)
VH: B18 VH with H53G
VL: B18 VL with S95H
notes: LC variant of MYT9460, sub at LCV pos 95 (L3 07)
B29: MYT11222 (antibody, V domains shown)
VH: B18 VH with H53G
VL: B18 VL with S26H
notes: LC variant of MYT9460, sub at LCV pos 26 (L1 03)
B30: MYT11221 (antibody, V domains shown)
VH: B18 VH with H53G
VL: B18 VL with A25H
notes: LC variant of MYT9460, sub at LCV pos 25 (L1 02)
B31: MYT11197 (antibody, V domains shown)
VH: B18 VH with H53G, T57H
VL: B18 VL
notes: HC variant of MYT9460, sub at HCV pos 57 (H2 08)
B32: MYT11246 (antibody, V domains shown)
VH: B18 VH with H53G
VL: B18 VL with S97H
notes: LC variant of MYT9460, sub at LCV pos 97 (L3 09)
B33: MYT11245 (antibody, V domains shown)
VH: B18 VH with H53G
VL: B18 VL with N96H
notes: LC variant of MYT9460, sub at LCV pos 96 (L3 08)
B34: MYT11236 (antibody, V domains shown)
VH: B18 VH with H53G
VL: B18 VL with A55H
notes: LC variant of MYT9460, sub at LCV pos 55 (L2 06)
B35: MYT11196 (antibody, V domains shown)
VH: B18 VH with H53G, G56H
VL: B18 VL
notes: HC variant of MYT9460, sub at HCV pos 56 (H2 07)
B36: MYT11240 (antibody, V domains shown)
VH: B18 VH with H53G
VL: B18 VL with Y91H
notes: LC variant of MYT9460, sub at LCV pos 91 (L3 03)
B37: MYT11224 (antibody, V domains shown)
VH: B18 VH with H53G
VL: B18 VL with S28H
notes: LC variant of MYT9460, sub at LCV pos 28 (L1 05)
B38: MYT11247 (antibody, V domains shown)
VH: B18 VH with H53G
VL: B18 VL with G98H
notes: LC variant of MYT9460, sub at LCV pos 98 (L3 10)
B39: MYT11253 (antibody, V domains shown)
VH: B18 VH with H53G
VL: B18 VL with N96A
notes: LC variant of MYT9460, Ala sub at LCV pos 96 (L3 08)

Molecular target: T1, Human PTK7 Protein, His Tag (Acro …)
Assay: BLI (Octet), antibody on anti-human Fc sensor, 50 nM PTK7; 2 = substantially similar binding

| Binder | binding result |
| --- | --- |
| B1 | binds |
| B2 | binds |
| B3 | binds |
| B4 | binds |
| B5 | binds |
| B6 | binds |
| B7 | binds |
| B8 | binds |
| B9 | binds |
| B10 | binds |
| B11 | binds |
| B12 | binds |
| B13 | binds |
| B14 | binds |
| B15 | binds |
| B16 | binds |
| B17 | binds |

Molecular target: T2, Human PTK7 Protein, His Tag, Acro …
Assay: BLI (Octet), antibody on anti-human Fc sensor, 50 nM PTK7, dissociation at pH 7.4 or 5.4; 1 = pH dependent binding relative to parent

| Binder | binding result |
| --- | --- |
| B18 | binds |
| B19 | binds |
| B20 | binds |
| B21 | binds |
| B22 | binds |
| B23 | binds |
| B24 | binds |
| B25 | binds |
| B26 | binds |
| B27 | binds |
| B28 | binds |
| B29 | binds |
| B30 | binds |
| B31 | binds |
| B32 | binds |
| B33 | binds |
| B34 | binds |
| B35 | binds |
| B36 | binds |
| B37 | binds |
| B38 | binds |
| B39 | binds |
